From article PMC7264293, “Multi-site-mediated entwining of the linear WIR-motif around WIPI β-propellers for autophagy” (Nature Communications, 2020)

Sequence of WIPI3-Δloop, Q5MNZ6 F125A (Q5MNZ6 other isoform, or with tags, fused parts or gaps F125A | mutant): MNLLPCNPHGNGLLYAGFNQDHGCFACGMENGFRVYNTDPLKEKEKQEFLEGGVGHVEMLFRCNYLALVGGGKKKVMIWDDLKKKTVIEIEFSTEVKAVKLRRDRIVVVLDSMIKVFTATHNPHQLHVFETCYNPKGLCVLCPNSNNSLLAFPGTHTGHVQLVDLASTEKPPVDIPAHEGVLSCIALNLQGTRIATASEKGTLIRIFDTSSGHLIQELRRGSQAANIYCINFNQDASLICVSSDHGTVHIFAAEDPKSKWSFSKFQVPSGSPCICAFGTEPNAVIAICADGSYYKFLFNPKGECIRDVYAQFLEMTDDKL
Sequence of WIPI3-Δloop, Q5MNZ6 Y65A (Q5MNZ6 other isoform, or with tags, fused parts or gaps Y65A | mutant): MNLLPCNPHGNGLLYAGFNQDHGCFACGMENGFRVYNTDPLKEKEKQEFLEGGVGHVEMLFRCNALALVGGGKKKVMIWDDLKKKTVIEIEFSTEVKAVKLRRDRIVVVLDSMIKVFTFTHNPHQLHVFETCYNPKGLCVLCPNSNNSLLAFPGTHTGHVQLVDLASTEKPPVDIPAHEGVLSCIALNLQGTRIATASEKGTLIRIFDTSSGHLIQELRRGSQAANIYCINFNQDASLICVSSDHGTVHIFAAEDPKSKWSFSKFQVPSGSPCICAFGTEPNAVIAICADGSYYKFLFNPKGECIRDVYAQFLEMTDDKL
Sequence of WIPI3-Δloop, Q5MNZ6 I96A (Q5MNZ6 other isoform, or with tags, fused parts or gaps I96A | mutant): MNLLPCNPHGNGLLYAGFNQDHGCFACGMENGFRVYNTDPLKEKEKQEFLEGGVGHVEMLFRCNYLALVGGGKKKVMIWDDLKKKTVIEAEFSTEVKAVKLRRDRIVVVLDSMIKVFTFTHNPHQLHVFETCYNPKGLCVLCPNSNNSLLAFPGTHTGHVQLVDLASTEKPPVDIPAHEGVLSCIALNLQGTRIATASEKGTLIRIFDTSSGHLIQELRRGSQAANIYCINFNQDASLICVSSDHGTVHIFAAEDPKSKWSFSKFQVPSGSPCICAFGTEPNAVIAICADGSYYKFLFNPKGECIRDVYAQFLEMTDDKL
Sequence of WIPI3-Δloop, Q5MNZ6 F98A (Q5MNZ6 other isoform, or with tags, fused parts or gaps F98A | mutant): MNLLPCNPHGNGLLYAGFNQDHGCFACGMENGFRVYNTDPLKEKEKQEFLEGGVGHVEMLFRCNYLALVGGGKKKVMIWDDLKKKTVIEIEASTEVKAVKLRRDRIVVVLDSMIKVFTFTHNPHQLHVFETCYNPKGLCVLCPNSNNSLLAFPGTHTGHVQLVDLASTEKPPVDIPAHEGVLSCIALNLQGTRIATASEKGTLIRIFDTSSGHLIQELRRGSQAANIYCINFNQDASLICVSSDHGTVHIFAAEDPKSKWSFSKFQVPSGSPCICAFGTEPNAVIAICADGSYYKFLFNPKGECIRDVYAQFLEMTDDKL
Sequence of WIPI3-Δloop, Q5MNZ6 R109Q (Q5MNZ6 other isoform, or with tags, fused parts or gaps R109Q | mutant): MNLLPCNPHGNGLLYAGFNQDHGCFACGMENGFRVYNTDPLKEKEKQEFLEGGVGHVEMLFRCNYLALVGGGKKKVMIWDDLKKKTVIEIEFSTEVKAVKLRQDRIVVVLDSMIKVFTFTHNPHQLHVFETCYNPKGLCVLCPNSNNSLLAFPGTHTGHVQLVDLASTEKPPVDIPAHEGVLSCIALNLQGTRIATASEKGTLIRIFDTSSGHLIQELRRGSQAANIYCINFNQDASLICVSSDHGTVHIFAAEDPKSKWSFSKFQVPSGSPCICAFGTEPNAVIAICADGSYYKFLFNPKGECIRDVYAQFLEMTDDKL
Sequence of WIPI3-Δloop, Q5MNZ6 R62A (Q5MNZ6 other isoform, or with tags, fused parts or gaps R62A | mutant): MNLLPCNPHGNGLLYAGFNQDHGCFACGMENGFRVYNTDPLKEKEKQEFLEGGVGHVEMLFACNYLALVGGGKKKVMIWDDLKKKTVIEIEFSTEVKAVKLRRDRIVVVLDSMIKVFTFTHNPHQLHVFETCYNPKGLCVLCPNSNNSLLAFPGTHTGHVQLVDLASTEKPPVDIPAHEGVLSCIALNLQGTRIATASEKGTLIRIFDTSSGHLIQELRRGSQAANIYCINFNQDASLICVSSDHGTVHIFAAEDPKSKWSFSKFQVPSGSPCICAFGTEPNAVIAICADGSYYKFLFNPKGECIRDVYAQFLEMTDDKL

These substances were tested against GB1-tagged ATG2A short fragment (1374-1404), the WIR-peptide (UniProt Q2TAZ0) (assay: ITC).
Sequence of GB1-tagged ATG2A short fragment (1374-1404), the WIR-peptide (Q2TAZ0 1374-1404): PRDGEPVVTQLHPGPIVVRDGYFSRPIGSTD
Substance WIPI3-Δloop, Q5MNZ6 F98A has a Kd of 31.6 µM.
WIPI3-Δloop, Q5MNZ6 F125A gave a Kd of 244 µM.
Work on WIPI3-Δloop, Q5MNZ6 I96A yielded a Kd of 40 µM.
Work on WIPI3-Δloop, Q5MNZ6 R62A yielded a Kd of 72.5 µM.
Work on WIPI3-Δloop, Q5MNZ6 R109Q yielded a Kd of 52.6 µM.
WIPI3-Δloop, Q5MNZ6 Y65A gave a Kd of 76.1 µM.
